Data as given in patent US20240301070A1, “IMPROVING ANTIBODY TOLERABILITY ASSOCIATED WITH INTRAVENOUS ADMINISTRATION” (BIOINVENT INTERNATIONAL AB, priority 2020, published 2024).
“Also recorded” adds a separate entry of the source.

What was measured:
wildtype C57/BL6 mice [1] = experiment: Macroscopic IRR scoring (0-2) of mice after antibody injection; assay type: in vivo, mouse
Protocol: Six to eight weeks-old (17-20 g) female C57/BL6 and Balb C mice were obtained from Taconic or Janvier. Mice were injected i.v with mouse anti-CD32B AT-130-2 IgG2a either as a bulk dose of 200 ug/mouse or as a split-dose with 8 ug/mouse followed by 200 ug/mouse. […]
Mice were monitored post injection with regards to changes in behavior and macroscopic symptoms such as isolation, mobility, and fur condition. Macroscopic IRRs scoring system of 0-2 was set up based on the observations.
These premedications were given i.p 1h prior to injection i.v of mouse anti-CD32B AT-130-2 IgG2a as a bulk dose of 200 ug/mouse. […]
Mice were monitored post injection with regard to changes in behavior and macroscopic symptoms such as isolation, mobility, and fur condition. Macroscopic IRRs scoring system of 0-2 was set up based on the observations: […]

wildtype C57/BL6 mice [2] = experiment: Platelet count in fresh mouse blood (Vetscan); assay type: in vivo; conditions: 40 mg/kg, 1 hour only, 10 mg/kg AT-130-2 IgG2a i.v.
Protocol: Blood samples were collected from vena saphena 20 min post injection of bulk dose of anti-CD32B for instant blood count analysis. For liver enzyme and cytokine analysis, the mice were bled from the aorta under isoflurane anesthesia just prior to sacrifice. Samples for liver enzymes and cytokines were collected 1h and respectively 3h after bulk dose.
Platelet counts were analyzed in fresh blood using a Vetscan (Vetscan HM5 Abaxis, Triolab).
Blood samples were collected from vena saphena for instant blood count analysis. For serum concentrations of AT130-2, liver enzyme and cytokine analysis, the mice were bled from the aorta under isoflurane anesthesia just prior to sacrifice.
Blood samples were collected from vena saphena for instant blood count analysis.

[3] = target: mouse CD32B (FcγRIIB) (mouse) (UniProt P08101); experiment: receptor saturation at 10 ug/ml serum concentration of AT-130-2; separate experiments not shown
mouse CD32B (FcγRIIB) (mouse), sequence (P08101 30-207 limits assumed): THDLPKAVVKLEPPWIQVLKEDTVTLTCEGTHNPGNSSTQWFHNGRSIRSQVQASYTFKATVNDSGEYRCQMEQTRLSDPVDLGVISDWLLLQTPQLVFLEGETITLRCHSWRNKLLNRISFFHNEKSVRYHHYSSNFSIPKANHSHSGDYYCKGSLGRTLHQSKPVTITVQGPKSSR

[4] = test system: human subjects with non-hodgkins B-cell lymphoma; experiment: ALT/AST in clinical studies with BI-1206
Source text: (§1) Platelet counts, ALT concentrations and IRR grading were obtained from clinical sites where anayzed and reported according local standard procedures.

[5] = test system: human subjects with non-hodgkins B-cell lymphoma; experiment: Cytokine analysis of plasma/serum of human subjects (MSD); assay type: in vivo
Protocol: For cytokine concentrations, frozen plasma samples were thawed and diluted ×2 and ×8. Two parallel set of cytokines were analyzed, the proinflammatory assay with IL-6, IL-8, TNF-α, IFN-γ, IL-10, IL-2 and IL-4 (MesoScale Discovery (MSD) #K15049), and the chemokine assay with MIP-1β, IL-1β, IL-23, IL-12p 70, TARC and VEGF (MSD #K15067). The assays followed the manufacturer's protocol as outlined briefly: 50 μL of sample and calibration standard were added to the appropriate MSD plates and incubated. Following washing, 25 µL of SULFO-TAG detection antibody mixture were added to each well of the corresponding plate. The plates were analyzed on a QuickPlex SQ120 Reader instrument (MSD) and cytokine concentration was calculated using the MSD software (Discovery Workbench, 2013; version LSR-4-0-12).

FcgRIIb = target: T1, FcgRIIb (Homo sapiens, UniProt P31994); experiment: FcgRIIb receptor occupancy on peripheral B cells (flow cytometry); assay type: in vivo; conditions: 100 mg BI-1206
T1 construct: FcgRIIb receptor occupancy on peripheral B cells (A) and peripheral B cell levels (B) in human subjects; endogenous in cells; host or cells: peripheral CD19+ B cells in whole blood of human subjects (same method also used on hFcgRIIB transgenic mice)
T1 sequence (P31994 43-310): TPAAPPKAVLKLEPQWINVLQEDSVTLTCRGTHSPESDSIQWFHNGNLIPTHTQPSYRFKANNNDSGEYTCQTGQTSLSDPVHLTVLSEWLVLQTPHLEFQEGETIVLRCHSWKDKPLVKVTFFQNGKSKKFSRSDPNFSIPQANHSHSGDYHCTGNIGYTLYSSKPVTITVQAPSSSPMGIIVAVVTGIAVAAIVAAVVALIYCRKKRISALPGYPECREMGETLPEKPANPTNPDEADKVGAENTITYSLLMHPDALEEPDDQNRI
Protocol: The FcgRIIb receptor occupancy in humans and hFcgRIIb transgenic mice was analyzed using flow cytometry. Whole blood from was incubated with either 005-C05 antibody (targeting hFcgRIIb) or anti-hCD32-AF647 antibody. 005-C05 binds the same epitope as BI-1206 but with much lower affinity. In the analysis, the Geo Mean of respectively mAb (005-C05 and anti-human CD32) was acquired on the CD19+ cell population. Receptor occupancy (RO) was calculated using the following equations: RO (%)=((Total Receptors-Normalized Free Receptors)*100)/Total Receptors. All replicates of 005-C05 geo mean of CD19+ cells were then multiplied by the Normalization factor.

[6] = test system: human subjects with non-hodgkins B-cell lymphoma; experiment: IRR grading in clinical studies with BI-1206; assay type: in vivo
Source text: The IRR that may be prevented or mitigated as described herein and/or that may be predicted with the method described herein may be any IRR. The adverse event denoted “Infusion related reaction” in the CTCAE version 5.0 is used for disorders characterized by adverse reaction to the infusion of pharmacological or biological substances; belonging to the group of “Injury, poisoning and procedural complications”.

peripheral B lymphocytes = experiment: Peripheral B lymphocyte depletion in human subjects; assay type: in vivo; conditions: 100 mg BI-1206
[7] = test system: human subjects with non-hodgkins B-cell lymphoma; experiment: Platelet counts in clinical studies with BI-1206; assay type: in vivo
Source text: as §1

[8] = 70 mg BI-1206, subjects 501-001 and 503-002
[9] = ≥50 mg BI-1206 (FIG. 6: 70-100 mg)

CCCCCCCCCCCCCCCCCCNC(=O)OCC(COP(=O)([O-])OCC[n+]1ccsc1)OC (stereo not drawn) [anti-PAF]
inhibition of IRRs by other pre-medications (wildtype C57/BL6 mice [1]; i.p. 1h prior to i.v. AT-130-2 IgG2a bulk dose 200 ug/mouse): None of these pre-medications could inhibit IRRs; also recorded: none of the tested substances (anti-PAF, anti-IL-6, anti-histamine and a leukotrien-antagonist) could prevent the IRRs

C[C@H]1C[C@H]2[C@@H]3CCC4=CC(=O)C=C[C@]4(C)[C@@]3(F)[C@@H](O)C[C@]2(C)[C@@]1(O)C(=O)CO [betamethasone]
effect of single premedication on platelet decrease (wildtype C57/BL6 mice [2]): did not inhibited
effect of single premedication on macroscopic symptoms (IRRs) (wildtype C57/BL6 mice [1]; 40 mg/kg, 1 hour only, 10 mg/kg AT-130-2 IgG2a i.v.): did not inhibited
grade of macroscopic symptoms after single premedication (wildtype C57/BL6 mice [1]; 40 mg/kg, 24 hours only, 10 mg/kg AT-130-2 IgG2a i.v.): 1

AT-130-2 IgG2a (anti-mouse CD32B IgG2a clone AT130-2) (antibody)
receptor saturation [3]: 100%

BI-1206: anti-FcγRIIB antibody with light chain SEQ ID No: 1 and heavy chain SEQ ID No: 2
ALT/AST increase after premedication with two doses of dexamethasone [4, 8]: no ALT/AST increase
subjects with significant ALT and AST increase ([4]; ≥70 mg BI-1206): 3 out of 16
subjects with transient cytokine release ([5]; 70-100 mg BI-1206 (FIG. 6), serum/plasma available): 7 of 8
association of cytokine release with clinical symptoms ([5]; ≥70 mg BI-1206): not been associated with clinical symptoms
cytokines included in the release ([5]; ≥70 mg BI-1206): macrophage inflammatory protein (MIP)-1β, tumor necrosis factor (TNF)-α, interleukin (IL)-10, IL-8, IL-6, and IL-4
time of peak cytokine release ([5]; ≥70 mg BI-1206): immediately after infusion
time to normalization of cytokines ([5]; ≥70 mg BI-1206): ≤ 24 h
FcγRIIB receptor occupancy on peripheral B cells (FcgRIIb): ~100%
duration of receptor saturation (FcgRIIb): up to 48 hours
IRR's without two-dose premedication ([6]; 30 mg BI-1206, subject 201-003, 9 administrations): repeatedly experienced IRR's
grade of IRR's with two doses of dexamethasone ([6]; 30 mg BI-1206, subject 201-003, 10th administration): 1
IRRs after premedication with two doses of dexamethasone ([6]; 70 mg BI-1206, subjects 501-001 and 503-002, 12 mg / 4 mg evening before and 20 mg 30 minutes prior): None of the subjects suffered any IRRs; also recorded: did not suffer IRRs
grade of IRRs ([6]; 70 mg BI-1206 with rituximab, subjects 501-001 and 503-002, dexamethasone (20 mg) only 30 minutes prior to infusion): 2-3
severity and frequency of IRRs after implementation of two-dose corticosteroid premedication ([6]; 70-100 mg BI-1206, study 17-BI-1206-02): Significantly lower frequency and severity of IRRs; also recorded: statistically significant reduced severity and frequency of IRRs
infusion related reactions (IRRs) during BI-1206 infusions ([6]; i.v., human subjects): frequently associated with IRRs; also recorded: Frequent
peripheral B lymphocytes (peripheral B lymphocytes): transient depletion
time to recovery of peripheral B lymphocytes (peripheral B lymphocytes): approximately 7 days
platelet decrease ([7]; 30 mg BI-1206, subject 201-003): never been seen
platelet decrease after premedication with two doses of dexamethasone [7, 8]: no/low platelet decrease
platelets [7, 9]: The decrease is transient
seriousness of thrombocytopenia [7, 9]: never serious or associated with bleeding; also recorded: not been serious nor associated with bleeding
time to resolution of most thrombocytopenia episodes [7, 9]: within a week
